Publication PMC10769870, “Bdellovibrio bacteriovorus uses chimeric fibre proteins to recognize and invade a broad range of bacterial hosts” (Nature Microbiology, 2024)

Tests used:
[1] = biological target: the molecule itself; test: crystal structure; Bd3182_(632–922) crystallised by vapour diffusion at 18 °C in three forms (Morpheus C1, P2_1; Morpheus G12, I2; Proplex E3, another P2_1); the 1.1 Å form is described
[2] = biological target: the molecule itself; test: crystal structure; Bd2439_(837–1,107), PACT H3 (P2_122_1) and MIDASplus E9 (P4); with ethylene glycol (1.6 Å) or GlcNAc–MurNAc (1.84 Å)
[3] = biological target: the molecule itself; test: crystal structure; Bd1334_(818–1,151), Morpheus C1, spacegroup C2, 2.6 Å
[4] = biological target: the molecule itself; test: crystal structure; Bd2734_(691–843), JCSG+ A3, spacegroup P2_1, 1.8 Å
[5] = biological target: the molecule itself; test: crystal structure; Bd2740_(518–627), MIDAS F1, spacegroup P2_12_12_1, 2.6 Å
[6] = biological target: the molecule itself; test: crystal structure; Bd1334_(914–1,151), PACT B9, spacegroup R3, 1.4 Å
[7] = biological target: the molecule itself; test: crystal structure; Bd2133_(910–1,031), Morpheus A4, spacegroup P2_12_12_1, 1 Å
[8] = biological target: the molecule itself; test: crystal structure; Bd2133_(662–1,031), native and selenomethionine-labelled, Morpheus B3, spacegroup P6_322, 2.5 Å

B1: Bd3182_(632–782), mature tip region of the MAT (mosaic adhesive trimer) fibre protein Bd3182 (domain or fragment, Bdellovibrio bacteriovorus HD100, UniProt Q6MIH5 632-782, looked up)
chain: GTNDAFSLSFETNNTPRMTIDDVGRVGVGTTAPTSALHVIGTGEVARFVTSATGGVVIDSTALNYNPSLIYRKTNINRWSMMVNAASETGGNAGSNLSILRYDDTGATLGAAVTIDRASGFFGINTAAPAYNIHVTGTAGLSTGSAWTVAS
notes: Bd3182 of Bdellovibrio bacteriovorus HD100, S74-group MAT fibre protein; expressed as residues 632-922, the S74 chaperone/protease domain cuts itself off at catalytic residue S782; the fibre part, labelled 632-782, was crystallised; the model traces P647 to A781; The methods name the cloned construct once as 668-922 and elsewhere as 632-922; also called Bd3182_(632–922) (construct before …)
stoichiometry N [1]: 3

B2: Bd2439_(837–1,107), tip of the NS74 MAT fibre protein Bd2439 (domain or fragment, Bdellovibrio bacteriovorus HD100, UniProt Q6MKF5 837-1107, looked up)
chain: GGLDIVNNATGDDNRDDLNIRTYGATETSSLIMLRARGTASAPAAVQTGDRLGGVLFRGWNGTAWMGSGQILSVAEENFTTAVKTNLQFHVGGAGEAMRISNTGNVGIGTTTTTEKLNVQGNVAVSGEITSVRSWGIKRGPTSFSANYINVWNSGYHVGSSIDCTTSTTGCRILKAGTYEIRCVQRAGTSGNSVYVGIALNGDRTALESRNDVLWNHSHTAYSGSYTESNFMGTLSANDLITCGAPVNTMAADLVYAVPAYNGTMQIKRVD
notes: Bd2439 of Bdellovibrio bacteriovorus HD100, G837-D1107 (β-helix N850-V968, R969 linker, TNF-like tip S970-D1107); pET26b construct; source: E. coli BL21 RIPL (DE3), purified (Ni-NTA, Superdex 200)
stoichiometry N [2]: 3

B3: Bd1334_(818–1,151), tip of the NS74 MAT fibre protein Bd1334 (domain or fragment, Bdellovibrio bacteriovorus HD100, UniProt Q6MNC5 818-1151, looked up)
chain: SSAETDFATAVNGNLRFYTAAAGTDSERMRITGSGLVGIGTPAPAVPLQVATRVPSSAVHPNRAGIQAVGEGTDVGGRISALVSSTIEMATFSGYQSAGTLAAPTAVTSGQSLTSLTAFAYNGTQYQSGGNASINFVATEAHTASAGGAKIIFNTTNNGATGSTEKVVIDQNGNVGVGVGAPTAKMDVNGGIKQPNYGIISAVRNSGGVTASMPWTNAYVLAHQGEMHQWVAGGPILQDSVTGCNAGPDAGVKFDSIATSWGGPYKVIFHTTGSNGAIHLEWSGWQVSLKNSAGTELAIGMGQVFATLHYDPAVSNWRVEHMFGRINNTNFTCW
notes: Bd1334 of Bdellovibrio bacteriovorus HD100, S818 to the C-terminus (W1151); The cloning paragraph prints this construct as Bd1334_(818–1,031); everywhere else it is 818–1,151; source: E. coli BL21 RIPL (DE3), purified (Ni-NTA, TEV, Ni-NTA, Superdex 200)
stoichiometry N [3]: 3

B4: Bd2734_(691–843), tip-only variant of the NS74 MAT fibre protein Bd2734 (domain or fragment, Bdellovibrio bacteriovorus HD100, UniProt Q6MJN8 691-843, looked up)
chain: TSTLMGSLTMLGKAGCQWEHANTSFASFSNVVACNTATVTGLASAPTEGKIPGIRFANLPAGDYELTVLIFSMYPVDAGVYCRYRLWDGTNFSGMAGAYESEIYQMTGLFSYATDQTNLTFYVQAQTLTATKNCRADITVPGQDKMQIYLKKL
notes: Bd2734 of Bdellovibrio bacteriovorus HD100 (843 aa), TNF-like tip, T691-L843; pET26b construct; The count of three copies rests on the discussion's word that trimerization is invariant in the six solved MATs; source: E. coli BL21 RIPL (DE3), purified (Ni-NTA, Superdex 200)
binding result [4]: binds

B5: Bd2740_(518–627), tip of the NS74 MAT fibre protein Bd2740 (domain or fragment, Bdellovibrio bacteriovorus HD100, UniProt Q6MJN2 518-627, looked up)
chain: APCDSGWTLINKGDPFCAKQQSVTGTNFATSMTQCLNNGGKLCDLQEAVGMCQTGFIPSNTTLWISQLADNSSAHVINCTSGSWSAGFYGFGVTVDGSNPILPYCCKGRR
notes: Bd2740 of Bdellovibrio bacteriovorus HD100 (627 aa), C-type lectin fold tip, residues 518-627 (the results print 517-626); Synthesised gene in pET29a; an Ala-Ser linker follows the hexa-His tag; source: E. coli BL21 RIPL (DE3), purified (Ni-NTA, Superdex 200)
stoichiometry N [5]: 3

B6: Bd1334_(914–1,151) (domain or fragment, Bdellovibrio bacteriovorus HD100, UniProt Q6MNC5 914-1151, looked up)
chain: SAGTLAAPTAVTSGQSLTSLTAFAYNGTQYQSGGNASINFVATEAHTASAGGAKIIFNTTNNGATGSTEKVVIDQNGNVGVGVGAPTAKMDVNGGIKQPNYGIISAVRNSGGVTASMPWTNAYVLAHQGEMHQWVAGGPILQDSVTGCNAGPDAGVKFDSIATSWGGPYKVIFHTTGSNGAIHLEWSGWQVSLKNSAGTELAIGMGQVFATLHYDPAVSNWRVEHMFGRINNTNFTCW
notes: Bd1334 of Bdellovibrio bacteriovorus HD100, S914 to the C-terminus (W1151); also called Bd1334 from S914 onwards; source: E. coli BL21 RIPL (DE3), purified (Ni-NTA, TEV, Ni-NTA, Superdex 200)
stoichiometry N [6]: 3

B7: Bd2133_(910–1,031), tip-only variant of Bd2133 (domain or fragment, Bdellovibrio bacteriovorus HD100, UniProt Q6ML84 910-1031, looked up)
chain: AATWTSLGLTSLGAVSMTTTTEQSFTLPVAAQTASQILVYLRCHSGNASTTGADDIRIYTKEGAATYDHYLLMFPYAGQGAVGYNSDSFWLPKTSDNKIYLAHSMAPGSANSGCNFYITGYK
notes: Bd2133 of Bdellovibrio bacteriovorus HD100, β-sandwich tip domain, A910 to the C-terminus (1031); Made by deletion from the plasmid of Bd2133_(662–1,031); also called tip-only variant (A910 onwards); source: E. coli BL21 RIPL (DE3), purified (Ni-NTA, TEV, Ni-NTA, Superdex 200)
binding result [7]: binds

B8: Bd2133_(662–1,031), tip of the NS74 MAT fibre protein Bd2133 (domain or fragment, Bdellovibrio bacteriovorus HD100, UniProt Q6ML84 662-1031, looked up)
chain: NSSGALGLSTSGSERMRIDTSGNLGLGTAAPTSALHVERTQDADTTVQVRNTHDTGTAAGARFIASNEKSGIWFGISGTSNTNTGLGSPGDAYIYNAAGTATGKNLNVINNQTGNIHFFAGSTATGTPRMTITNTGLVGINTAAPLQKLHVENGNMVITGTAPAYQLKENDTTDQNWQMGINNGNLRFATQNDALNSSSDKVVISQAGNVGIGATAPTAKLEVAGTIHSTSGGIKFPDGSVQTTAASGAATWTSLGLTSLGAVSMTTTTEQSFTLPVAAQTASQILVYLRCHSGNASTTGADDIRIYTKEGAATYDHYLLMFPYAGQGAVGYNSDSFWLPKTSDNKIYLAHSMAPGSANSGCNFYITGYK
notes: Bd2133 of Bdellovibrio bacteriovorus HD100, N662 to the C-terminus (K1031); A selenomethionine-labelled form was also crystallised for phasing; source: E. coli BL21 RIPL (DE3), purified (Ni-NTA, TEV, Ni-NTA, Superdex 200)
stoichiometry N [8]: 3
